Experiments:
[1] = test system: CD8+ TIL infiltration in B16 tumor; assay: Immunofluorescence analysis of CD8+ TIL infiltration in tumor; type: in vivo, C57BL/6 mice; conditions: B16 tumor-bearing mice
From the text: Systemic Immunotherapeutic Combination Therapy (for FIG. 10, 11, 12)
72 male 6-8 weeks old C57BL/6 mice were subcutaneously (s.c.) inoculated on their back of the ribs with 2×10^6 B16 cells, and then monitored daily for tumor growth. These tumor-bearing animals were randomly numbered and then divided into 9 groups depended on the random number. Indicated groups were subjected to OVs (H101, 4×10^9 VPs) therapy i.t. and/or GM-CSF s.c. and/or PD-L1 mab (eBioscience, Cat#16-5982-85) i.p. or PBS (pH 7.4) only s.c. at indicated time points. After day 13, all animals were sacrificed and analyzed. Grouping and experiment design are illustrated in FIG. 17.
Immunofluorescence Analysis of CD8^+ TIL Infiltration in Tumor Using Systemic Immunotherapeutic Combination Therapy (for FIG. 12)
The level of CD8^+ TIL infiltration in tumor was determined by immunofluorescence staining. […] After the treatment with antifade mounting medium, fluorescence signals were detected under fluorescence microscope (BX43, OLYMPUS). Fluorescence images were analyzed using Image-Pro Plus 6.0 software and the histogram was made by GraphPad Prism 5 software and p<0.05 was considered statistically significant.

[2] = test system: CD11b+ DC in spleen; assay: Flow cytometric analysis of GM-CSF induced expansion of DC in B16 melanoma cell murine model; type: in vivo, C57BL/6 mice; conditions: s.c.
From the text: Animal Model (for FIGS. 5-11)
The male immunocompetent C57BL/6 mice were purchased from Shanghai Experimental Animal Center (Shanghhai, China) and maintained in the animal facility at Tongji University (Shanghai, China) according to the animal research committee's guidelines of Tongji University. To establish the tumor-bearing animal model, the male immunocompetent C57BL/6 mice 6-8 weeks old, were subcutaneously (s.c.) inoculated on their back of the ribs with 2×10^6 B16 cells, and then monitored daily for tumor growth. After 6 days (when the tumors grew up to a mean tumor volume of around 70-100 mm^3), these tumor-bearing animals were randomly numbered and then divided into groups depended on the random number. Tumor volume was measured with a caliper each three days and calculated using the following formula: [L×W^2]/2 (L=length of tumor; W=width of tumor). […]
Briefly, mice were killed, and spleens were removed into cold culture medium and processed immediately. […] All cells from all incubation periods were pooled and counted. […]
63 male 6-8 weeks old C57BL/6 mice were subcutaneously (s.c.) inoculated on their back of the ribs with 2×10^6 B16 cells, and then monitored daily for tumor growth. […] After another 1.5, 2.5, 3.5 and 4.5 days, indicated groups were sacrificed and analyzed, respectively. […]

[3] = test system: Ly-6G+ DC precursors and CD11b+ DC in spleen; assay: Flow cytometric analysis of GM-CSF induced expansion of DC and DC precursor in normal animals; type: in vivo; conditions: s.c., healthy C57BL/6 mice
Description: Spleen Tissue Dissociation (for FIG. 6-8)
Briefly, mice were killed, and spleens were removed into cold culture medium and processed immediately. Surrounding mouse tissue and fat were removed. The spleens were minced into 2-3 mm fragments, and then crushed in cold culture medium using a flat tail of syringe piston. The spleen fragments were mixed up and down several times using a 1.5 mL micropipette with a tip cut to a diameter adapted to tissue fragment size. After that, the fragments were filtered through a […] nylon mesh cell strainer (BD Biosciences, San Diego, Calif., USA). The released cells were centrifuged at 1200 RPM for 2 min and stored in cold culture medium with 30% (v/v) FCS at 4° C. All cells from all incubation periods were pooled and counted.
Flow Cytometric Analysis of GM-CSF Induced Expansion of DC and DC Precursorin Normal Animals (for FIG. 6, 7)
52 male 6-8 weeks old C57BL/6 mice were randomly numbered and then divided into 13 groups depended on the random number. 12 groups were subcutaneously (s.c.) administered murine GM-CSF (PeproTech, Cat#96-315-03-1000) 2 μg on their back of the ribs, single injection from day 1 to 12 respectively. The last group was control. After 13 days, all animals were sacrificed. […]

B1: murine GM-CSF: murine granulocyte-macrophage colony-stimulating factor (PeproTech, Cat#96-315-03-1000) (protein, UniProt P01587 18-141, looked up)
Granulocyte-macrophage …: APTRSPITVTRPWKHVEAIKEALNLLDDMPVTLNEEVEVVSNEFSFKKLTCVQTRLKIFEQGLRGNFTKLKGALNMTASYYQTYCPPTPETDCETQVTTYADFIDSLKTFLTDIPFECKKPGQK
CD8+ TIL infiltration in tumor [1]: induces medium CD8^+ TIL infiltration | CD11b+ DC in spleen [2]: induces up-regulation of CD11b^+ DC in spleen at Day 3.5 | CD11b+ DC in spleen [3]: induces expansion of CD11b^+ DC at day 2-4 | Ly-6G+ DC precursors in spleen [3]: induces expansion of Ly-6G^+ DC precursors at day 1
